Experimental data from patent US20160024208A1 (Regeneron, published 2016).
Where a chain is given by its changes, count along the chain named. One block for each binder: values may come before it.

What was measured:
[1] = biological target: T1, Native Nav1.7 (3-1) peptide, rat (rat); experiment: SPR, captured antibody, peptide analyte
T1 construct: Synthetic peptide; also called Rat Nav1.7 3-1 native
T1 peptide: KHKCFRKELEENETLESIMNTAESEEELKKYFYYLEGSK
Description: (§1) The binding affinities of anti-Naᵥ 1.7 antibodies to Naᵥ 1.7 loop peptides were determined by Biacore. For monovalent kinetic experiments, antibodies were captured through the Fc region via a goat anti-Fc-coupled biosensor surface, and the peptides (as analyte) were injected over this captured antibody surface. For bivalent (avidity-driven) kinetic experiments, biotinylated peptides corresponding to the Naᵥ 1.7 3-1, 3-3, or paddle loop sequences were captured on a NeutrAvidin sensor surface, and anti-Naᵥ 1.7 antibodies (as analyte) were injected over this surface. Following the capture step, each analyte was individually injected at several concentrations over its respective capture surface, and changes in bound surface units (RU) were monitored. The dissociation rate is independent of the concentration of analyte used in the experiment, and the dissociation rate constant (kd) was determined from the change in antibody-bound analyte RU over time. The Biacore kinetic data were obtained using a double referencing procedure. The double referencing was conducted by first subtracting any interaction of the analyte over the reference surface (i.e., the anti-Fc coupled surface alone or the NeutrAvidin surface alone), thereby correcting for nonspecific binding to capture surface and for refractive index changes. Control buffer injections (no analyte) over the antibody- or peptide-captured surfaces were also performed to allow subtraction of RU signal changes resulting from the natural dissociation of captured binding partner from the sensor surface. The kinetic parameters were obtained by globally fitting the data for all concentrations tested for a given peptide or antibody to a 1:1 binding model using Biacore T100 Evaluation Software version 2.0.2. The KD was calculated as the dissociation rate constant divided by the association rate constant (KD=kd/kₐ). The dissociative half-life (t_{1/2}) was calculated from the dissociation rate constant (t_{1/2}=In2/kd).

[2] = biological target: T2, Native Nav1.7 (3-1) peptide, human (human); experiment: SPR, captured antibody, peptide analyte
T2 construct: Synthetic peptide (Celtek), unbiotinylated; also called Human Nav1.7 3-1 native; Nav1.7 3-1 native peptide
T2 peptide: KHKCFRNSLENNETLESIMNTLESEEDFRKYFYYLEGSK
Description: as §1

[3] = biological target: T3, N-Term Biotin Nav1.7 (3-1) peptide, mouse (mouse, not fully specified; N-terminal biotin attached via a G4S linker); experiment: SPR, captured antibody, peptide analyte
T3 construct: Synthetic peptide; also called Mouse Nav1.7 3-1 N-term biotin
T3 peptide: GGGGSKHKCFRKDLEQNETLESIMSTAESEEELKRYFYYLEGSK
Description: as §1

[4] = biological target: T4, N-Term Biotin Nav1.7 (3-1) peptide, mulatta (mulatta (monkey), not fully specified; N-terminal biotin attached via a G4S linker); experiment: SPR, captured antibody, peptide analyte
T4 construct: Synthetic peptide; also called Mulatta Nav1.7 3-1 N-term biotin; monkey
T4 peptide: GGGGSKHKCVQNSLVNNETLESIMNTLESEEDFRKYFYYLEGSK
Description: as §1

[5] = biological target: T5, full-length human Nav1.7 fused at its N-terminus to GFP, expressed in HEK293 cells (human, UniProt Q15858 1-1988); experiment: flow cytometry; % stained hNav1.7-GFP-HEK293 minus parental HEK293
T5 construct: Voltage-gated sodium channel alpha subunit; In the Western blot it stood as denatured cell lysate; also called hNav 1.7-GFP-HEK293; Nav 1.7-GFP-HEK293; not shown: green fluorescent protein (GFP) at the N-terminus
Description: The binding of anti-Naᵥ 1.7 human antibodies to full-length Naᵥ 1.7 expressed in HEK293 cells was determined by flow cytometry (FACS). HEK293 cells were stably-transfected with full-length human Nav1.7 fused at its N-terminus to the green fluorescent protein (GFP) to generate cell line hNaᵥ 1.7-GFP-HEK293. Antibody binding to the transfected cells overexpressing Naᵥ 1.7 was compared to binding to the parental HEK293 cell line. To perform the binding experiments, adherent cells were collected using 1 mM EDTA in PBS, washed and re-suspended in cold PBS containing 5% FBS. For each binding experiment, the anti-Naᵥ 1.7 antibody (at concentrations ranging from 1 nM to 13 nM), was added to 250,000 cells in 500 μL of PBS with 5% FBS. After incubation for 20 minutes on ice, the secondary antibody, recognizing either human-Fc and conjugated to cyanine 5 (Cy5) or recognizing mouse-Fc and conjugated to allophyocyanin (APC), was then added to the cell mixture at a final secondary antibody concentration of 1.7 nM. After incubating for 20 minutes on ice, the cells were resuspended in PBS+5% FBS and then sorted and analyzed on a flow cytometer to determine relative binding by the candidate antibodies. For FACS analysis, gating was applied to examine only healthy live cells in the antibody binding experiments, and percentage stained was recorded. Staining of secondary antibodies alone to Naᵥ 1.7-GFP-HEK293 cells gave low background signals (1-2%). Specific binding was measured as the percent binding to Naᵥ 1.7-GFP-HEK293 cells minus percent binding to parental HEK293 cells.

[6] = biological target: T1, Native Nav1.7 (3-1) peptide, rat; experiment: ELISA on coated peptide, antibody 1 ug/ml, OD450 grade
Description: (§2) Anti-Naᵥ 1.7 antibodies were tested for their ability to bind to the Naᵥ 1.7 peptides. The various peptides were coated overnight onto 96-well Nunc Immunosorp plates at a concentration of 4 μg/mL in PBS, followed by blocking for 1 hour in a suitable blocking agent. For biotinylated peptides, avidin was first coated on Nunc Immunosorp plates at 2 μg/mL in PBS overnight, followed by blocking as described, and the plate was then coated with biotinylated peptides at a concentration of 0.4 μg/mL and incubated for 1 hour at room temperature. Purified anti-Naᵥ 1.7 antibodies were diluted to a final concentration of 0.1 μg/mL and 1.0 μg/mL and added to the wells of the coated microtiter plates followed by incubation for 1 hour at room temperature. Bound antibodies were detected with horseradish peroxidase (HRP) conjugated anti-mouse or anti-human IgG (Jackson Immuno Research Lab, West Grove, Pa.) depending on the antibody species and developed by colorimetric response using tetramethylbenzidine (TMB) substrate (BD Biosciences). Absorbance was read at OD₄₅₀ on a plate reader for 0.1 second.
(§3) Values in Table 11 represent absolute binding ranges (at OD450) to plate-coated peptides for antibodies added at 1 μg/ml as follows: OD450<0.2: −; 0.2<OD450<1: +; 1<OD450<2: ++; 2<OD450<4: +++; NT: Not Tested.

[7] = biological target: T6, N-Term Biotin-Nav1.7 (3-1) peptide, human (human, not fully specified; N-terminal biotin attached via a G4S linker); experiment: as above
T6 construct: ELISA peptide
T6 peptide: T4 peptide with V10F, Q11R, V15E
Description: as §2, §3

[8] = biological target: T3, N-Term Biotin Nav1.7 (3-1) peptide, …; experiment: as above
Description: as §2, §3

[9] = biological target: T4, N-Term Biotin Nav1.7 (3-1) peptide, …; experiment: as above
Description: as §2, §3

[10] = biological target: T5, full-length human Nav1.7 fused at its …; experiment: cell-based or functional assay
[11] = biological target: T7, C-term Biotin Nav1.7 (3-1) peptide, human (human, not fully specified; C-terminal biotin attached via a G4S linker); experiment: SPR, captured biotin-peptide, antibody analyte
T7 construct: Synthetic peptide; also called Human Nav1.7 3-1 C-term biotin
T7 peptide: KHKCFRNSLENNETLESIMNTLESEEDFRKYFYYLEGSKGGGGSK
Description: as §1

[12] = biological target: T5, full-length human Nav1.7 fused at its …; experiment: flow cytometry on Nav1.7-GFP-HEK293, antibody 3.3 nM
Description: (§4) The specificity of binding of anti-Naᵥ 1.7 human antibodies to full-length Naᵥ 1.7 expressed in HEK293 cells was determined by peptide competition experiments using flow cytometry.
(§5) HEK293 cells stably-transfected with full-length Naᵥ 1.7 fused at its N-terminus to GFP (Naᵥ 1.7-GFP-HEK293) were used for this study. Antibody binding to the transfected cells overexpressing Naᵥ 1.7 was compared to binding in the presence of excess peptide and to binding to the parental HEK293 cell line. To perform the binding experiments, adherent cells were collected using 1 mM EDTA in PBS, washed and re-suspended in cold PBS containing 5% FBS. For each binding experiment the anti-Naᵥ 1.7 antibody at a final concentration of 3.3 nM (in PBS/5% FBS) was added to cells either directly or after incubating for 10 min on ice with a 1000-fold molar excess (3.3 uM final concentration in PBS/5% FBS) of synthetic peptide with sequence corresponding to the loop specificity of the antibody. The antibodies designated as H4H391P, H4H443B, H4H448B, and H1M797N were preincubated as described above with a synthetic peptide corresponding to EC loop 3-1 (amino acid residues 269-338 of SEQ ID NO: 670), whereas the antibodies designated as H4H468P and H1 M852N were preincubated with a synthetic peptide corresponding to EC loop 3-3 (amino acid residues 1333-1382 of SEQ ID NO: 670). The antibody or antibody-peptide mixture was then allowed to incubate with cells for 20 min on ice, followed by addition of 500 uL of cold PBS/5% FBS. Cells were collected by centrifugation, resuspended in 500 uL of cold PBS/5% FBS, and then secondary antibody matched to the antibody isotype (either anti-human-Fc conjugated to Cyanine 5 or anti-mouse-Fc conjugated to allophyococyanin) was added. Binding was detected on the flow cytometry instrument and analyzed as percent binding using the instrument software. For FACS analysis appropriate gating was applied so that only healthy, live cells were counted. Background staining of secondary antibodies alone to Naᵥ 1.7-GFP-HEK293 cells was tested and recorded for all samples, and results ranged between 1-2% binding.

[13] = biological target: T5, full-length human Nav1.7 fused at its …; experiment: flow cytometry on Nav1.7-GFP-HEK293, antibody 3.3 nM preincubated with 3.3 uM EC 3-1 peptide as competitor
Description: as §4, §5

[14] = biological target: T3, N-Term Biotin Nav1.7 (3-1) peptide, …; experiment: ELISA on coated peptide
Description: as §2, §3

Kd [1]: 101 nM
t1/2 [1]: 0.11 min
Kd [2]: 113 nM
t1/2 [2]: 0.44 min
Kd [3]: 351 nM
t1/2 [3]: 0.083 min
Kd [4]: 12.6 nM
t1/2 [4]: 2.8 min
% Binding Nav1.7 [5]: 28.1%
OD450 [6]: 2 to 4 od
OD450 [7]: 2 to 4 od
OD450 [8]: 2 to 4 od
OD450 [9]: 2 to 4 od
Current blocking (Average % inhibition), IonWorks Quattro, 223 nM antibody [10]: 24%
Kd [11]: 0.231 nM
t1/2 [11]: 29.8 min
B1: H1H1019B (antibody, V domains shown)
VH: EVQLVESGPGLVKPSETLSLKCTVSGGSIRSSGYYWGWIRQPPGKGLEWIGSIHHSGSTYYNPSLKSRVTISVDTSKSQFSLRLTSVTAADTAVYYCGRHGRDYYYGMDVWGQGTTVTVSS
VL: AIQLTQSPSSLSASVGDRVTITCRASQDINNWLVWYQQKPGKAPKLLIYAASSLQSGVPSRFSGSGSGTDFTLTISSLQPEDFATYYCQQANSFPLTFGGGTKVDIKR

% Binding Nav1.7 [5]: 36%
% Binding Nav1.7 (Stable Line) [12]: 93%
% Binding Nav1.7 + 1000x Peptide (Competition Binding) [13]: 33.4%
B2: H1M994N (antibody, V domains shown)
VH: QVQLVESGGGVVQPGRSLRLSCAASGFTFSSYGMHWVRQAPGKGLEWVAVISYDGNNKHFADSVKGRFTISRDNSKNTLNLQMNSLRAEDRAVYYCARGASGFVLDIWGQGTMVTVSS
VL: DIVMTQTPLSSPVTLGQPASISCRSSQSLVRSDGNTYLSWLQQRPGQPPRLLIYKISNRFSGVPDRFSGSGAGTDFTLKISRVEAEDVGIYFCMQTTQFPFTFGPGTKVDIK
notes: Hybridoma-derived

% Binding Nav1.7 [5]: 61%
% Binding Nav1.7 (Stable Line) [12]: 95.6%
% Binding Nav1.7 + 1000x Peptide (Competition Binding) [13]: 17.7%
B3: H1M826N (antibody, V domains shown)
VH: QVQLVESGGGVVQPERSLRLSCAASGFTFSSYGMHWVRQAPGEGLEWVAVISYDGSNTKYADSVRGRFTISRDNSKNMLYLQMNSLRAEDTAVFYCARGYSGYAFDYWGQGILVTVSS
VL: B2 VL with Q27H, S70T, S81N, I90F, F92Y, T96A
notes: Hybridoma-derived

binding result [1]: no binding
Kd [2]: 13.6 nM
t1/2 [2]: 8.1 min
binding result [3]: no binding
Kd [4]: 2.18 nM
t1/2 [4]: 36.1 min
% Binding Nav1.7 [5]: 14.3%
% Binding Nav1.7 (Stable Line) [12]: 7.8%
% Binding Nav1.7 + 1000x Peptide (Competition Binding) [13]: 2.6%
Kd [11]: 0.802 nM
t1/2 [11]: 64.6 min
B4: H4H391P (antibody, V domains shown)
VH: QVQLVESGGGVVQPGRSLRLSCAASGFTFSSYGMHWVRQAPGKGLEWVAVISYEGSNKHYADSVKGRFTISRDNSKNTLYLQMNSLRAEDTAVFYCAQSRGYSYGLGYWGQGTLVTVSS
VL: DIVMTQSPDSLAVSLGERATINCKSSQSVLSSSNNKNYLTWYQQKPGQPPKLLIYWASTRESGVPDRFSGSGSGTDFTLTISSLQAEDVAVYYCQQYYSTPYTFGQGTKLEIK

binding result [3]: no binding
OD450 [14]: < 0.2 od
B5: H4H408B (antibody, V domains shown)
VH: B4 VH with E54Q, G55E, A61V, F94Y
VL: DIQMTQSPSSLSASVGDRVTITCRASQGIRNDLGWYQQKPGKAPKRLIYAASSLQSGVPSRFSGSGSGTEFTLTISSLQPEDFATYYCQQHNSYPLTFGQGTKVEIKR
